Results published in patent US20160346368A1.

What was measured:
PVR-CD4TM-GFP (human) [1] = experiment: flow cytometry; HEK-293T cells transfected with PVR-CD4TM-GFP; CD226-Fc at 1 ug/ml; PE anti-human Fc
PVR-CD4TM-GFP (human) [2] = experiment: flow cytometry; HEK-293T cells transfected with PVR-CD4TM-GFP; CD226-Fc at 10 ug/ml; PE anti-human Fc
[3] = target: PVR S72N variant-CD4TM-GFP (human); experiment: flow cytometry; HEK-293T cells transfected with PVR S72N variant-CD4TM-GFP; CD226-Fc at 1 ug/ml; PE anti-human Fc
[4] = target: PVR S72N variant-CD4TM-GFP (human); experiment: flow cytometry; HEK-293T cells transfected with PVR S72N variant-CD4TM-GFP; CD226-Fc at 10 ug/ml; PE anti-human Fc
[5] = target: PVR Q82K variant-CD4TM-GFP (human); experiment: flow cytometry; HEK-293T cells transfected with PVR Q82K variant-CD4TM-GFP; CD226-Fc at 1 ug/ml (heading of FIG. 8A); PE anti-human Fc
[6] = target: PVR Q82K variant-CD4TM-GFP (human); experiment: flow cytometry; HEK-293T cells transfected with PVR Q82K variant-CD4TM-GFP; CD226-Fc at 10 ug/ml (heading of FIG. 8A); PE anti-human Fc
[7] = target: PVR Q82K+S72N double variant-CD4TM-GFP (human); experiment: flow cytometry; HEK-293T cells transfected with PVR Q82K+S72N double variant-CD4TM-GFP; CD226-Fc at 1 ug/ml (heading of FIG. 8A); PE anti-human Fc
[8] = target: PVR Q82K+S72N double variant-CD4TM-GFP (human); experiment: flow cytometry; HEK-293T cells transfected with PVR Q82K+S72N double variant-CD4TM-GFP; CD226-Fc at 10 ug/ml (heading of FIG. 8A); PE anti-human Fc
[9] = target: PVR S72N variant-CD4TM-GFP (human); experiment: flow cytometry; HEK-293T cells transfected with PVR S72N variant-CD4TM-GFP; PE anti-human Fc
[10] = target: PVR Q82K variant-CD4TM-GFP (human); experiment: flow cytometry; HEK-293T cells transfected with PVR Q82K variant-CD4TM-GFP; PE anti-human Fc
[11] = target: PVR Q82K+S72N double variant-CD4TM-GFP (human); experiment: flow cytometry; HEK-293T cells transfected with PVR Q82K+S72N double variant-CD4TM-GFP; PE anti-human Fc
PVR-CD4TM-GFP (human) [12] = experiment: flow cytometry; HEK-293T cells transfected with PVR-CD4TM-GFP; Fc fusion detected with PE anti-human Fc; PE against FITC (GFP)

Chain of CD226-Fc (Q15762 19-254): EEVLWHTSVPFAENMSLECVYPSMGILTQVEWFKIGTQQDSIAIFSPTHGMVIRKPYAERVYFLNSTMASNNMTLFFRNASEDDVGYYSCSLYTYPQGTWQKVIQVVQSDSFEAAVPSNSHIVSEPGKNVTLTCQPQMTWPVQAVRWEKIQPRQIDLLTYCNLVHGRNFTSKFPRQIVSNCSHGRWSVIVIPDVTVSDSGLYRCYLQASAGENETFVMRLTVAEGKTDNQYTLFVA

Substance | MFI (PVR-CD4TM-GFP (human) [1]) | MFI (PVR-CD4TM-GFP (human) [2]) | MFI [3] | MFI [4] | MFI [5] | MFI [6] | MFI [7] | MFI [8] | MFI [9] | MFI [10] | MFI [11] | MFI (PVR-CD4TM-GFP (human) [12])
CD226-Fc (from UniProt Q15762 19-254) (Fc fusion) | 205 | 409 | 16.5 | 104 | 247 | 521 | 17.9 | 93.3 | – | – | – | –
TIGIT-Fc (from UniProt Q495A1 22-141) (Fc fusion) | – | – | – | – | – | – | – | – | 530 | 605 | 795 | 389
